From patent US20230295310A1 (ABCELLERA BIOLOGICS, published 2023)

Assays:
[1] = molecular target: T1, cynomolgus monkey CD3 expressed on primary T cells (cynomolgus monkey, UniProt Q95LI5 22-198; Q95LI8 22-171; Q95LI7 23-181); experiment: flow cytometry, 25 nM, cyno primary T cells
T1 construct: whole, on cells; CD3 complex on purified cynomolgus monkey T cells; also called cyno CD3
Method: (§1) Purified antibodies were confirmed to bind CD3 expressed on cells using the CytoFLEX S or LX flow cytometers (Beckman Coulter). Antibodies were diluted to 25 nM in FACS buffer (PBS+2% FBS) and were incubated with CD3-expressing cells for 30 minutes at 4° C. […] The median fluorescence intensity of the binding signal for each antibody was normalized to the isotype control to obtain a fold over isotype value. An antibody with a fold over isotype (FOI) of ≥10 was considered to be positive for binding.

[2] = molecular target: T2, human CD3 expressed on cells (human, UniProt P07766 23-207; P04234 22-171; P09693 23-182); experiment: flow cytometry, 25 nM
T2 construct: whole, on cells; CD3 complex on Jurkat cells and on human primary T cells
Method: as §1

T1 sequence (Q95LI5 22-198, chain 1 of 3): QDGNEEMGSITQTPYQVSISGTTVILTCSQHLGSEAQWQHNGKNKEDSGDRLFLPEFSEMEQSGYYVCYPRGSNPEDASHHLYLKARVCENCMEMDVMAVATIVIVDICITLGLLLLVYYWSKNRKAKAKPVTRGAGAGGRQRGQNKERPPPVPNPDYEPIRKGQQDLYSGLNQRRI
T1 sequence (Q95LI8 22-171, chain 2 of 3): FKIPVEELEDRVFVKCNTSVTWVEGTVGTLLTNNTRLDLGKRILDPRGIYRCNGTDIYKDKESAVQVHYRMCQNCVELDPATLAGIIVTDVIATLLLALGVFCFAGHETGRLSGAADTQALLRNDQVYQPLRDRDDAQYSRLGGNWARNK
T1 sequence (Q95LI7 23-181, chain 3 of 3): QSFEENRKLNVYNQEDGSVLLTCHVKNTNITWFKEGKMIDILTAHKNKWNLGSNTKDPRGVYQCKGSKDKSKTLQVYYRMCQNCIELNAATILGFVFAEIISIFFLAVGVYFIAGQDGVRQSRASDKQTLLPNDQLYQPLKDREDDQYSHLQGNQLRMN
T2 sequence (P07766 23-207, chain 1 of 3): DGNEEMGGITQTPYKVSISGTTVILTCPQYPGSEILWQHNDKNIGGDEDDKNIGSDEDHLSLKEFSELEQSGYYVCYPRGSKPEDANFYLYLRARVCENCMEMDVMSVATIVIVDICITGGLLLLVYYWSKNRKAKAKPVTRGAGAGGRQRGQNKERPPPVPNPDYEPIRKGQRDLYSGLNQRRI
T2 sequence (P04234 22-171, chain 2 of 3): as the sequence (Q95LI8 22-171, chain 2 of 3) above, with V5I, K15N, V20I, T32S, N33D, N34I, A64T, N74S, L83V, R141H counted along it
T2 sequence (P09693 23-182, chain 3 of 3): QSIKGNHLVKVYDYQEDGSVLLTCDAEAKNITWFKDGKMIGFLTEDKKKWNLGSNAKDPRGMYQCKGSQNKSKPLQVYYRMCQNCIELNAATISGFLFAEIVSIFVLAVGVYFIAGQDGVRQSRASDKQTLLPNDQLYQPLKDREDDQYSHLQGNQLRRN

Row | binding result [1] | Human primary T Cell Binding (FOI) [2] [FOI] | Jurkat Cell Binding (FOI) [2] [FOI] | Binder
1 | no binding (tested: FOI >=10 = positive) | 173 | 161 | mAb 83 (antibody, V domains shown) VH: QVQLVESGGGVVQPGRSLRLSCAASGFTFSGYGMHWVRQAPGKGLDWVAIIYYNGNNKYYADSVKGRFTISRDNSKNTLYLQMNSLRAEDTAVYYCARGGGYNWFDPWGQGTLVIVSS VL: DIQMTQSPSSLSASVGDRVTITCRPSQIIINYLNWYQQKPGKAPKLLIYAASSLQSGVPSRFSGSGSGTDFTLTISSLQPEDFATYYCQQSYSTPFTFGRGTRLEIK
2 | no binding (tested: FOI >=10 = positive) | 198 | 175 | mAb 93 (antibody, V domains shown) VH: QVQLVESGGGVVQPGRSLRLSCAASGFTFRGYGMHWVRQAPGKGLEWVAIIYYNGNNKYYADSVKGRFTISRDNSKNTLYLQMNSLRAEDTAVYYCARGGGYNWFDPWGQGTLVTVSS VL: DIQMTQSPSSLSASVGDRVTITCRASQSISNYLNWYQQEPGKAPKLLIYTASSLQSGVPSRFSGSGSGTAFTLTISSLQPEDFAIYYCQRSSSPPFTFGPGTKLDIK
3 | no binding (tested: FOI >=10 = positive) | 233 | 216 | mAb 101 (antibody, V domains shown) VH: QGQLVESGGGVVQPGRSLRLSCAASGFTFRGFGMHWVRQAPGKGLEWVAIIYYDGKNKYYADSVKGRFTISRDNSKNMLYLQMNSLRAEDTAVYYCAKGGGYNWFDPWGQGTLVTVSS VL: DIQMTQSPSSLSASVGDRVTITCRASQSISTYLNWYQQKPGKAPKLLIYSASSLQSGVPSRFSGSGSGTDFTLTISNLQPEDFAIYYCQRSYSPPFTFGPGTKLDIR
4 | no binding (tested: FOI >=10 = positive) | 211 | 192 | mAb 97 (antibody, V domains shown) VH: QGQLVESGGGVVQPGRSLRLSCAASGFTFRGYGMHWVRQAPGKGLEWVAIIYYDGKNKYYADSVKGRFTISRDNSKNTLYLQMNNLRVEDTAVYYCARGGGYNWFDPWGQGTLVTVSS VL: DIQMTQSPSSLSASIGDRVTITCRASQSISNYLNWYQQKPGKAPKLLIYSASSLQSGVPSRFSGSGSGTDFTLTISNLQPEDFAIYYCQRSYSPPFTFGPGTKLDIR
5 | no binding (tested: FOI >=10 = positive) | 189 | 175 | mAb 86 (antibody, V domains shown) VH: QVQLAESGGGVVQPGRSLRLSCEASGFTFSGYGMHWVRQAPGKGLDWVAIIYYDGKNKYYADSVKGRFTISRDNSKNTLYLQMNSLRAEDTAVYYCARGGGYNWFDPWGQGTLVTVSS VL: DIQMTQSPSSLSASVGDRVTITCRPSQTISKYLNWYQQKPGKAPKLLIYAASSLQSGVPSRFSGSGSGTDFTLTISSLQPEDFATYYCQQSYITPITFGRGTRLEIK
6 | no binding (tested: FOI >=10 = positive) | 74.5 | 109 | mAb 73 (antibody, V domains shown) VH: EVELVESGGGLVQPGRSLRLSCAASGFTFDDKVMHWVRQAPGKGLEWVSCINWNSGHIGYADSVKGRFTISRDNARTSLYLQMNSLRPEDTALYYCVREGNYDFWSGYYRGFFDLWGRGTLVTVSS VL: DIQMTQSPSSLSASVGDRVTITCRASQGIRNDLGWYQQKPGKAPKRLIYAASSLQGGVPSRFSGSGSGTEFTLTISSLQPEDFATYYCLQHTSYPFTFGQGTKLEIK

Continued, binder first:

Row | Binder | binding result [1] | Human primary T Cell Binding (FOI) [2] [FOI] | Jurkat Cell Binding (FOI) [2] [FOI]
7 | mAb 85 (antibody, V domains shown) VH: QVQLVQSGAEVKKPGASVKVSCKASGYTVTGYYMHWVRQAPGQGLEWMGWINPNSGGTNFAQNFQGRVTMTRDTSISTFYMDLNRLRSDDTAVYYCARGGAPVSYWFFDLWGRGTLVTVSS VL: DIQMTQSPSSLSASVGDRVTITCRASQSISRYLNWYQQKPGKAPKVLIYNTSSLKSGVPSRFSGSGSGTDFTLTISSLQPEDFGTFYCQQSHSTPFTFGPGTKVDIK | no binding (tested: FOI >=10 = positive) | 195 | 181
8 | mAb 66 (antibody, V domains shown) VH: QVQLVQSGAEVKKPGASVKVSCKASGYTVTGYYMHWVRQAPGQGLEWMGWINPNSGGTNFAQNFQGRVTMTRDTSISTFYMDLSRLRSDDTAVYYCARGGAPVSYWFFDLWGRGTLVTVSS VL: DIQMTQSPSSLSASVGDRVTITCRASQSISRYLNWYQQKPGKAPKVLIYNTSSLKSGVPSRFSGSGSGTDFTLTISSLQPEDFATLYCQQSHSTPFTFGPGTKVDIK | no binding (tested: FOI >=10 = positive) | 192 | 172
9 | mAb 79 (antibody, V domains shown) VH: QVQLVQSGAEVKKPGASVKVSCKASGYIVTGYYMHWVRQAPGHGLEWMGWINPNSGGTNFAQNFQGRVTMTRDTSISTFYMDLNRLTSDDTAVYYCARGGAPVSYWFFDLWGRGTLVTVSS VL: DIQMTQSPSSLSASVGDRVTITCRASQNINSYLNWYHQKPGKAPKVLIYNTSTLKSGVPSRFSGSGSGTYFTLTISSLQPEDFATFYCQQSHSTPFTFGPGTKVDIK | no binding (tested: FOI >=10 = positive) | 199 | 171
10 | mAb 72 (antibody, V domains shown) VH: EVQLVDSGGGLVQPGGSLRLSCAASGFTFSSYWMSWVRQAPGKGLEWVANIKQDGSEKYYVDSVKGRFTISRDNVKNSLSLEMNSLRAEDTALYYCARDESSSWYWYFDLWGRGTLVTVSS VL: DIQMTQSPSTLSASVGDRVTITCRASQSISKWLAWYQQKPGKAPKLLIYKASSLENGVPSRFSGSGSGTEFTLTISSLQPDDFATYYCQQYSSYSRTFGQGTKVEIK | no binding (tested: FOI >=10 = positive) | 91.4 | 98.7
11 | mAb 81 (antibody, V domains shown) VH: QVQLAESGGGVVQPGRSLRLSCAASGFTFSGYGMHWVRQAPGKGLDWVAIIYYDGKNKYYADSVKGRFTISRDNSKNTLYLQMNSLRAEDTAVYYCARGGGYNWFDPWGQGTLVTVSS VL: DIQMTQSPSSLSASVGDRVTITCRPSQTISNYLNWYQQDPGKAPKLLIYAASSLQSGVPSRFSGSGSGTDFTLTISSLQPEDFATYYCQQSYSTPITFGRGTRLEIK | no binding (tested: FOI >=10 = positive) | 158 | 165
12 | mAb 95 (antibody, V domains shown) VH: QAHLVESGGGVVQPGRSLRLSCSASGFTFSGYGMHWVRQAPGKGLEWVALIYFDGRNKYYADSVKGRFTISRDNSKNTLYLQMNSLRAEDTAVYYCARGGGYNWFDPWGQGTLVTVSS VL: DIQMTQSPSSLSASVGDRVTITCRASQSINNYLSWYQQKPGKAPKLLIYLASNLQSGVPSRFSGSGSGTDFTLTISSLQPEDFATYYCQLSYRSPFTFGPGTKVDVK | no binding (tested: FOI >=10 = positive) | 206 | 177
13 | mAb 99 (antibody, V domains shown) VH: QGQLVESGGGVVQPGRSLRLSCAASGFTFRGFGMHWVRQAPGKGLEWVAIIYYDGKNKYYADSVKGRFTISRDNSKNTLYLQMNSLRAEDTAVYYCAKGGGYNWFDPWGQGTLVTVSS VL: DIQMTQSPSSLSASVGDRVTITCRASQSISTYLNWYQQKPGKAPKLLIYSASSLQSGVPSRFSGSGSGTDFTLTISNLQPEDFAIYYCQRSYSPPFTFGPGTKLDIR | no binding (tested: FOI >=10 = positive) | 218 | 198
14 | mAb 100 (antibody, V domains shown) VH: QVQLVESGGGVVQPGRSLRLSCVASGFTFRGYGMHWVRQAPGKGLEWVAIIYYDGKNKYYADSVKGRFTISRDNSKNTLYLQMNSLRVEDTALYYCARGGGYNWFDPWGQGTLVTVSS VL: DIQMTQSPSSLSASVGDRVTITCRASQSISTYLNWYQQKPGKAPKLLIYTASSLQSGVPSRFSGSGSGTVFTLTISSLQPEDFAIYYCQRSYSPPFTFGPGTRLDIK | no binding (tested: FOI >=10 = positive) | 229 | 241
15 | mAb 67 (antibody, V domains shown) VH: EVQLVESGGDLVQPGRSLRLSCAASGFTFDDCVIHWVRQAPGKGLEWVSGITWNSGRIGYADSVKGRFTISRDNAKNSLYLQMNSLRVEDTALYYCAKEGNYDFWSTYYRGYFDLWGRGTLVTVSS VL: DIQMTQSPSSLSASVGDRVTITCRASQGIRNDLGWYQQKPGIAPKRLIYAASSLQGGVPLRFSGSGSGTEFTLTISSLQPEDFATYYCLQHNSYPYTFGQGTKLEIK | no binding (tested: FOI >=10 = positive) | 72.4 | 70.2
16 | mAb 74 (antibody, V domains shown) VH: EVQLVESGGGLVQPGRSLRLSCAASGFTFADYVMHWVRQAPGKGLEWVSGINWNNARIGYVGSVKGRFTISRDNAKNSLYLQMTSLRVEDTALYHCVREGNFDFWSAYYRGFLDLWGRGTLVTVSS VL: DIQMTQSPSSLSASVGDRVTITCRASQGIRSDLGWYQQKPGKAPKRLIYGASSLQGGVPSRFSGSGSGTEFTLTISSLQPEDFATYYCLQHNSYPYTFGQGTKLEIK | no binding (tested: FOI >=10 = positive) | 146 | 151
17 | mAb 71 (antibody, V domains shown) VH: QVQLVQSGAEVRKPGASVKVSCKASGYTFTKYDVNWVRQAPGQGLEWMGWMNSNNGNIGYAQKFQGRVTMTRKTSISTAYMELSSLRSEDTAVYYCAREGHYDFWRGFYNFDYWGQGTLVTVSS VL: DIQMTQSPSSLSASVGDRVTITCRASQDIKNDLGWYQQKPGKAPKRLIYAASSLQSGVPSRFSGSGSGTEFTLTISSLQPEDFATYYCLQHNFYPITFGQGTRLEIK | no binding (tested: FOI >=10 = positive) | 108 | 100
